# Results published in patent US20230322953A1 (HARBOUR BIOMED SHANGHAI, published 2023).
# B1: PR001035, anti-BCMA HCAb antibody, clone 1005P36F3 (antibody, human IgG1, V domains shown)
# VH: EVQLVETGGGLIQPGGSLRLSCAASGFTVSSNYMTWVRQAPGKGLEWVSVIFSGGSTYYADSVKGRFTISRDNSKNTLYLQMNSLRAEDTAVYYCARRIAVAGHDVFDIWGQGTMVTVSS
# notes: Heavy-chain-only antibody (HCAb), human IgG1 Fc, no light chain
# B2: PR001990 (bispecific antibody, human IgG1, lambda, L234A L235A)
# light: QAVVTQEPSLTVSPGGTVTLTCRSSTGAVTTSNYANWVQQKPGQAPRGLIGGTNKRAPWTPARFSGSLLGDKAALTLLGAQPEDEAEYFCALWYSNLWVFGGGTKLTVLGQPKAAPSVTLFPPSSEELQANKATLVCLISDFYPGAVTVAWKADSSPVKAGVETTTPSKQSNNKYAASSYLSLTPEQWKSHRSYSCQVTHEGSTVEKTVAPTECS
# heavy: EVQLLESGGGLVQPGGSLRLSCAASGFTFNTYAMNWVRQAPGKGLEWVSRIRSKYNNYATYYADSVKDRFTISRDDSKSTLYLQMNSLRAEDTAVYYCVRHGNFGNSYVSWFAYWGQGTLVTVSSASTKGPSVFPLAPSSKSTSGGTAALGCLVKDYFPEPVTVSWNSGALTSGVHTFPAVLQSSGLYSLSSVVTVPSSSLGTQTYICNVNHKPSNTKVDKKVEPKSCDKTHTCPPCPAPEAAGGPSVFLFPPKPKDTLMISRTPEVTCVVVDVSHEDPEVKFNWYVDGVEVHNAKTKPREEQYNSTYRVVSVLTVLHQDWLNGKEYKCKVSNKALGAPIEKTISKAKGQPREPQVYTLPPCREEMTKNQVSLWCLVKGFYPSDIAVEWESNGQPENNYKTTPPVLDSDGSFFLYSKLTVDKSRWQQGNVFSCSVMHEALHNHYTQKSLSLSPGK
# chain: EVQLVETGGGLIQPGGSLRLSCAASGFTVSDNYMTWVRQAPGKGLEWVSVIFSGGNTYYADSVKGRFTISRDNAKNTLYLQMNSLRAEDTALYYCARRNYDDTRGTDVFDIWGQGTMVTVSSASEPKSSDKTHTCPPCPAPEAAGGPSVFLFPPKPKDTLMISRTPEVTCVVVDVSHEDPEVKFNWYVDGVEVHNAKTKPREEQYNSTYRVVSVLTVLHQDWLNGKEYKCKVSNKALGAPIEKTISKAKGQPREPQVCTLPPSREEMTKNQVSLSCAVKGFYPSDIAVEWESNGQPENNYKTTPPVLDSDGSFFLVSKLTVDKSRWQQGNVFSCSVMHEALHNHYTQKSLSLSPGK
# Legend:
# human BCMA [1] = target: T1, human BCMA (human, UniProt Q02223 1-184); test: flow cytometry, NCI-H929 cells
# T1 construct: whole, on cells; the cell line is named under assay; also called TNFRSF17; CD269
# T1 sequence (looked up): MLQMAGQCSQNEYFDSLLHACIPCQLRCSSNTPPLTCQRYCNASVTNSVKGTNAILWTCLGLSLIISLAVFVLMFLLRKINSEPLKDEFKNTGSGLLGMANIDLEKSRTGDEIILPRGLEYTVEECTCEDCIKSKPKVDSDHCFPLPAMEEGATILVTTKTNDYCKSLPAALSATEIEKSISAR
# human BCMA [2] = target: T1, human BCMA; test: flow cytometry, HEK293T/hBCMA cells
# cynomolgus monkey BCMA = target: T2, cynomolgus monkey BCMA (cynomolgus monkey); test: flow cytometry, HEK293T/cyno BCMA cells
# T2 construct: whole, on cells; also called cyno BCMA; HEK293T/cyno BCMA cells
# [3] = target: T3, biotinylated human BCMA-Fc, Avitag recombinant protein (ACRO Biosystems, #BC7-H82F0) (human, UniProt Q02223 1-54, biotinylated); test: BLI (Octet Red96e), biotinylated BCMA-Fc on SA sensor, antibody in solution, 1:1 global fit
# T3 construct: extracellular domain; Bought protein; also called human BCMA protein; recombinant human BCMA-ECD-Fc; not shown: Fc of the bought fusion protein; Avitag
# T3 sequence (looked up): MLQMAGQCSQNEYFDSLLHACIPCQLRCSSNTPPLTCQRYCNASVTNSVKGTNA
# [4] = target: T4, human BCMA on NCI-H929 cells (ATCC, CRL-9068) (human, UniProt Q02223 1-184); test: cell-based or functional assay
# T4 sequence (looked up): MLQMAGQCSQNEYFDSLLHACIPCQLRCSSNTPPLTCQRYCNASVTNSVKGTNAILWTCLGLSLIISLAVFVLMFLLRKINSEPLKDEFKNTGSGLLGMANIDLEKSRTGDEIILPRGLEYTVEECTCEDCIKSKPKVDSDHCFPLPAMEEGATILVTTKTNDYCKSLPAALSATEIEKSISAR
# [5] = target: T4, human BCMA on NCI-H929 cells (ATCC, …); test: cell-based or functional assay; remark: listed apart in the source
# [6] = target: T4, human BCMA on NCI-H929 cells (ATCC, …); test: cell-based or functional assay; remark: listed apart in the source
# [7] = target: T5, cynomolgus monkey CD3 (TCR/CD3 complex) on cynomolgus monkey T cells (cynomolgus monkey); test: flow cytometry (FACS) on cynomolgus monkey T cells
# T5 construct: whole, on cells
# [8] = target: T6, human CD3 (TCR/CD3 complex) on human T cells (human, UniProt P07766 23-207); test: flow cytometry (FACS) on human T cells, Experiment 1
# T6 construct: whole, on cells
# [9] = target: T6, human CD3 (TCR/CD3 complex) on human T …; test: flow cytometry (FACS) on human T cells, Experiment 3
# [10] = target: T7, cynomolgus monkey BCMA (ACRO Biosystems, #BCA-C82F4) (cynomolgus monkey, UniProt A0A2K5UD97 1-53); test: BLI (Octet Red96e), cyBCMA.Fc on SA sensor, 1:1 global fitting
# T7 construct: Bought protein; also called cyBCMA.Fc
# [11] = target: T7, cynomolgus monkey BCMA (ACRO …); test: BLI; KD for cynomolgus monkey BCMA divided by KD for human BCMA
# [12] = target: T8, biotinylated human BCMA-Fc, Avitag recombinant protein (ACRO Biosystems, #BC7-H82F0) (human, UniProt Q02223 1-54, biotinylated (Avitag)); test: BLI (Octet Red96e), biotinylated BCMA-Fc on SA sensor, 1:1 global fitting;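 also: Anti-BCMA antibodies analysed as binding partners of the captured BCMA antigen, with reference signals removed by double referencing before kinetic fitting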
# T8 construct: extracellular domain; Bought protein; also called huBCMA.Fc; recombinant human BCMA-ECD-Fc
# T8 sequence (looked up): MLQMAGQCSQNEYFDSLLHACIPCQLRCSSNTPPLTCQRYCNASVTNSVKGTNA
# T7 sequence (A0A2K5UD97 entry or part of it): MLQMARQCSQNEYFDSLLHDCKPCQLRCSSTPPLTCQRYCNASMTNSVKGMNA
# T6 sequence (P07766 23-207, one chain of several): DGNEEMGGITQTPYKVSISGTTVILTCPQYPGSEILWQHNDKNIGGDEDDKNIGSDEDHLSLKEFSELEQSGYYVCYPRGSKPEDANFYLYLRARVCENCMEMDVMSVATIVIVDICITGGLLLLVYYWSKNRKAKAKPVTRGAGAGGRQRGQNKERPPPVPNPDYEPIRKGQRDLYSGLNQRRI
# T5 sequence (Q95LI5 22-198, one chain of several): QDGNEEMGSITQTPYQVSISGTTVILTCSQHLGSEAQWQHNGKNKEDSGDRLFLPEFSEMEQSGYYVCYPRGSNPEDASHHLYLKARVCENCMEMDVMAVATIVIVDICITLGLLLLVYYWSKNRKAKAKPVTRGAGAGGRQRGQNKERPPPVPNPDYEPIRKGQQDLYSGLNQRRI
binder,measurement,setting,value
B1,EC50,human BCMA [1],1.19 nM
same,Maximum MFI,human BCMA [1],113000
same,EC50,human BCMA [2],0.336 nM
same,Maximum MFI,human BCMA [2],39800
same,Maximum MFI,cynomolgus monkey BCMA,10800
same,Kd,[3],0.276 nM
same,koff,[3],8.98e-05 s⁻¹
same,kon,[3],325000 M⁻¹ s⁻¹
B2,"IFN-γ release, EC50",[4],1.36 nM
same,"IFN-γ release, Maximum",[4],1230 pg/mL
same,"IL-2 release, EC50",[4],5.29 nM
same,"IL-2 release, Maximum",[4],185 pg/mL
same,"IL-6 release, EC50",[4],8.2 nM
same,"IL-6 release, Maximum",[4],273 pg/mL
same,"IL-10 release, EC50",[4],1.96 nM
same,"IL-10 release, Maximum",[4],777 pg/mL
same,"NCI-H929 killing, EC50",[4],0.59 nM
same,"NCI-H929 killing, Maximum killing rate %",[4],61.4%
same,"TNF-α release, EC50",[4],5.49 nM
same,"TNF-α release, Maximum",[4],1200 pg/mL
same,"Killing EC50 (nM), T cell + NCI-H929, + 10 ng/mL sAPRIL",[5],0.0879 nM
same,"Killing EC50 (nM), T cell + NCI-H929, + 10 ng/mL sBAFF",[5],0.0787 nM
same,"Killing EC50 (nM), T cell + NCI-H929, + 100 ng/mL sAPRIL",[5],0.154 nM
same,"Killing EC50 (nM), T cell + NCI-H929, + 100 ng/mL sBAFF",[5],0.094 nM
same,"Killing EC50 (nM), T cell + NCI-H929, no soluble ligand",[5],0.0733 nM
same,"Killing EC50 (nM), T cell + NCI-H929, + 62.5 ng/ml sBCMA",[6],0.176 nM
same,"Killing EC50 (nM), T cell + NCI-H929, + 125 ng/mL sBCMA",[6],0.234 nM
same,"Killing EC50 (nM), T cell + NCI-H929, + 250 ng/mL sBCMA",[6],0.387 nM
same,"Killing EC50 (nM), T cell + NCI-H929, + 500 ng/mL sBCMA",[6],0.546 nM
same,"Killing EC50 (nM), T cell + NCI-H929, no sBCMA",[6],0.0787 nM
same,Maximum MFI,[7],15600 MFI
same,Maximum MFI,[8],5450 MFI
same,Maximum MFI,[9],350000 MFI
same,Kd,[10],3.35 nM
same,koff,[10],0.0025 s⁻¹
same,kon,[10],746000 M⁻¹ s⁻¹
same,KD ratio (cy BCMA/hu BCMA),[11],1.72
same,Kd,[12],1.95 nM
same,koff,[12],0.000629 s⁻¹
same,kon,[12],322000 M⁻¹ s⁻¹
